The text below walks through data of PMC9595545, “Nonamer dependent RAG cleavage at CpGs can explain mechanism of chromosomal translocations associated to lymphoid cancers”.

The target in data set [1] is T1, RAG1 nonamer binding domain (NBD) (UniProt P15919 389-456).
T1 sequence: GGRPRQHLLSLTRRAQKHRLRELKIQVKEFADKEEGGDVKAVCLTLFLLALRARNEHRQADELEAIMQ
Briefly: BLI; RAG EMSA: 22.5 mM MOPS-KOH pH 7.0, 20% DMSO, 2.2 mM DTT, 50 mM K-glutamate, 2% glycerol, 100 ng/ml BSA, 2 h, 25 C; NBD EMSA as in earlier work; BLI: SAX sensors, NBD 0.36-2.22 nM, 1:1 fit, buffer not stated. The note with it: protein: recombinant, tags: His (pET28a, Ni-NTA), chain copies: 2, biotin (BLI). A general note: Biolayer interferometry detects binding as a change in optical thickness at a sensor tip.

The target of data set [2] is T1, RAG1 nonamer binding domain (NBD). The data set is described as follows: EMSA; RAG EMSA: 22.5 mM MOPS-KOH pH 7.0, 20% DMSO, 2.2 mM DTT, 50 mM K-glutamate, 2% glycerol, 100 ng/ml BSA, 2 h, 25 C; NBD EMSA as in earlier work; BLI: SAX sensors, NBD 0.36-2.22 nM, 1:1 fit, buffer not stated. The note with it: protein: recombinant, tags: His (pET28a, Ni-NTA), chain copies: 2, T/G mismatch. In general terms: A gel shift assay detects complexes by their altered migration in electrophoresis.

B1: 12RSS (AKN1/AKN2) (dsDNA)
DNA 1: GATCAGCTGATAGCTACCACAGTGCTACAGACTGGAACAAAAACCCTGCT
DNA 2: TAGCAGGGTTTTTGTTCCAGTCTGTAGCACTGTGGTAGCTATCAGCTGAT
Regarding B1, the dissociation constant Kd in data set [1] (label: 5'-32P on AKN1 (EMSA)) came out at 0.7 nM.

B2: KI (AP66/AP67) (dsDNA)
DNA 1: GAAAAAAGTGGCTCCCTGCCCAAGTATCCCTGTAAAACAAAAACCAAAAG
DNA 2: CTTTTGGTTTTTGTTTTACAGGGATACTTGGGCGGGGAGCCACTTTTTTC
As for B2, in data set [1] (label: 5'-32P on AP66 (EMSA), T/G mismatch), the dissociation constant Kd worked out at 0.36 nM.

B3: MTCIV (NM92/NM93) (dsDNA)
DNA 1: GGAGGGGCTTCCCCTTGTTCACGCCAATGGCAGCGCCAGGTGTTCAGGGAGCTCTTGCGTTCAAACCACGA
DNA 2: TCGTGGTTTGAACGCAAGAGCTCCCTGAACACCTGGCGCTGCCATTGGCGTGAACGAGGGGAAGCCCCTCC
As to B3, in data set [2] (label: 5'-32P on NM92), the binding result was “binds”.

B4: MTCII (NM88/NM89) (dsDNA)
DNA 1: TGCCATTGGCGTGAATGAGGGGAAGCCCCTCCTGACAGCTGGATGGTAGGACAAAGCCCTCTA
DNA 2: TAGAGGGCTTTGTCCTACCATCCAGCTGTCAGGAGGGGCTTCCCCTCGTTCACGCCAATGGCA
B4: the binding result in data set [2] (label: 5'-32P on NM88) is recorded as “binds”.

B5: MTCI (NM50/NM51) (dsDNA)
DNA 1: TTCAGGGAGCTCTTGTGTTCAAACCACGAAGAAGACGCAGTTTAATCTCA
DNA 2: TGAGATTAAACTGCGTCTTCTTCGTGGTTTGAACGCAAGAGCTCCCTGAA
In the case of B5, the binding result in data set [2] (label: 5'-32P on NM50) is listed as “binds”.

B6: FI (HK5/HK6) (dsDNA)
DNA 1: GGCCCTGCTTGACTGTGTCACAACCCCATCCAGTGGCCCTGAACTTGG
DNA 2: CCAAGTTCAGGGCCACTGGATGGGGTTGTGACGCAGTCAAGCAGGGCC
In the case of B6, the equilibrium dissociation constant (Kd) in data set [1] (label: 5'-32P on HK5 (EMSA), T/G mismatch) stood at 0.69 nM.

B7: MTCIII (NM90/NM91) (dsDNA)
DNA 1: TCACGCCAATGGCAGTGCCAGGTGTTCAGGGAGCTCTTGCGTTCAAACCACGA
DNA 2: TCGTGGTTTGAACGCAAGAGCTCCCTGAACACCTGGCGCTGCCATTGGCGTGA
For B7, the binding result in data set [2] (label: 5'-32P on NM90) is “binds”.

What is called Kd is the concentration at which binding is half-saturated.
